According to publication doi:10.1101/691972, “Structure of D. melanogaster ARC1 reveals a repurposed molecule with characteristics of retroviral Gag” (bioRxiv, 2019):
Where a chain is given by its changes, count along the chain named. Names may count otherwise.

Columns and labels:
[1] = target: the molecule itself; test: crystal structure; Se-Met dARC1 CA; orthorhombic (P212121, 1.7 Å) and hexagonal (P6122, 2.3 Å) crystal forms, each with a dimer in the asymmetric unit; NaCl, HEPES pH 7.5 type conditions, 18 °C
[2] = target: the molecule itself; test: SEC-MALS; SEC-MALLS; 25-400 µM loaded in 100 µL on Superdex INCREASE 200 10/300 GL; 20 mM Tris-HCl, 150 mM NaCl, 0.5 mM TCEP, 3 mM NaN3, pH 8.0

B1: Se-Met substituted dARC1 CA (residues S39-N205) (domain or fragment, Drosophila melanogaster)
chain: SRGKGNFSACTHSFGGTRDHDVVEEFIGNIETYKDVEGISDENALKGISLLFYGMASTWWQGVRKEATTWKEAIALIREHFSPTKPAYQIYMEFFQNKQDDHDPIDTFVIQKRALLAQLPSGRHDEETELDLLFGLLNIKYRKHISRHSVHTFKDLLEQGRIIEHNNPLE
modifications: seleno-methionine substituted (incorporation confirmed by ESI-MS)
notes: dARC1, Drosophila melanogaster, Uniprot Q7K1U0, residues 39-205 (CA domain); the added N-terminal Met was processed; Protein of the two solved crystal forms (orthorhombic and hexagonal); also called SeMet dARC1 CA; seleno-methionine derivative protein; source: E. coli B834 (DE3) in seleno-methionine medium, purified by the identical procedure (Ni-NTA, carboxypeptidase A, SEC); not shown: His6, …
- binding result [1]: binds

B2: dARC1 CA (F133A) (domain or fragment, Drosophila melanogaster)
chain: B1 chain with F95A
notes: dARC1, Drosophila melanogaster, Uniprot Q7K1U0, residues 39-205 (CA domain) with F133A; also called F133A mutation; source: E. coli BL21 (DE3), purified
- binding result [2]: binds

B3: dARC1 CA (capsid domain region of D. melanogaster dARC1, residues S39-N205) (domain or fragment, Drosophila melanogaster)
chain: B1 chain
notes: dARC1, Drosophila melanogaster, Uniprot Q7K1U0, residues 39-205 (CA domain); the added N-terminal Met was processed (confirmed by ESI-MS); Native (non-SeMet) protein used for SEC-MALLS and AUC; also called dARC CA; dARC1 CA (S39-N205); source: E. coli BL21 (DE3), purified (Ni-NTA, carboxypeptidase A digestion of the His-tag, Superdex 75 SEC); not shown: His6, C-terminal, cleaved
- stoichiometry N [2]: 2
